Laboratory results taken from patent US20200199204A1.

Legend:
Assay in all cases: cell-based or functional assay
[1] = molecular target: HIV-1 Env of DU156.12 (HIV-1)
[2] = molecular target: HIV-1 Env of CAP256.SU (HIV-1)
[3] = molecular target: HIV-1 Env of ZM135.10a (HIV-1)
[4] = molecular target: HIV-1 Env of CAP244.D3 (HIV-1)
[5] = molecular target: HIV-1 Env of CM244.ec1 (HIV-1)
[6] = molecular target: HIV-1 Env of Q461.e2 (HIV-1)
[7] = molecular target: HIV-1 Env of ZM53.12 (HIV-1)
[8] = molecular target: HIV-1 Env of DU172.17 (HIV-1)
[9] = molecular target: HIV-1 Env of Q23.17 (HIV-1)
[10] = molecular target: HIV-1 Env of RHPA.7 (HIV-1)
[11] = molecular target: HIV-1 Env of MB201 (HIV-1)
[12] = molecular target: HIV-1 Env of Q842.d12 (HIV-1)
[13] = molecular target: HIV-1 Env of REJO.67 (HIV-1)
[14] = molecular target: HIV-1 Env of ZM214.15 (HIV-1)
[15] = molecular target: HIV-1 Env of 96ZM651.02 (HIV-1)
[16] = molecular target: HIV-1 Env of AC10.29 (HIV-1)
[17] = molecular target: HIV-1 Env of CAAN.A2 (HIV-1)
[18] = molecular target: HIV-1 Env of SC422.8 (HIV-1)
[19] = molecular target: HIV-1 Env of QH0692.42 (HIV-1)
[20] = molecular target: HIV-1 Env of WITO.33 (HIV-1)
[21] = molecular target: HIV-1 Env of DU422.01 (HIV-1)
[22] = molecular target: HIV-1 Env of RW020.2 (HIV-1)
[23] = molecular target: HIV-1 Env of ZM233.6 (HIV-1)
[24] = molecular target: HIV-1 Env of 0260.v5.c36 (HIV-1)
[25] = molecular target: HIV-1 Env of 3016.V5.c36 (HIV-1)
[26] = molecular target: HIV-1 Env of PVO.04 (HIV-1)
[27] = molecular target: HIV-1 Env of TRO.11 (HIV-1)
[28] = molecular target: HIV-1 Env of MB539.2B7 (HIV-1)
[29] = molecular target: HIV-1 Env of UG037.8 (HIV-1)
[30] = molecular target: HIV-1 Env of CAP45.G3 (HIV-1)
[31] = molecular target: Env of SIVmac251.30 (SIV (SIVmac251))
[32] = molecular target: HIV-1 Env of BG505.w6m (HIV-1)
[33] = molecular target: HIV-1 Env of Q259.d2.17 (HIV-1)
[34] = molecular target: HIV-1 Env of 6405.v4.c34 (HIV-1)
[35] = molecular target: HIV-1 Env of ZM249.1 (HIV-1)
[36] = molecular target: HIV-1 Env of CNE3 (HIV-1)
[37] = molecular target: HIV-1 Env of C1080.c3 (HIV-1)
[38] = molecular target: HIV-1 Env of Q168.a2 (HIV-1)
[39] = molecular target: HIV-1 Env of KER2018.11 (HIV-1)
[40] = molecular target: HIV-1 Env of KER2008.12 (HIV-1)
[41] = molecular target: HIV-1 Env of TH976.17 (HIV-1)
[42] = molecular target: HIV-1 Env of ZM197.7 (HIV-1)
[43] = molecular target: HIV-1 Env of THRO.18 (HIV-1)
[44] = molecular target: HIV-1 Env of TRJO.58 (HIV-1)
[45] = molecular target: HIV-1 Env of 6535.3 (HIV-1)
[46] = molecular target: HIV-1 Env of CAP210.E8 (HIV-1)
[47] = molecular target: HIV-1 Env of ZM109.4 (HIV-1)
[48] = molecular target: HIV-1 Env of CAP256.PI (HIV-1)
[49] = molecular target: HIV-1 Env of Q769.d22 (HIV-1)
[50] = molecular target: HIV-1 Env of 191821.E6.1 (HIV-1)

CAP256-VRC26.24 (antibody)
IC50 [1]: 10.8 µg/mL
IC50 [2]: 0.04 µg/mL
IC50 [3]: > 50 µg/mL
IC50 [4]: > 50 µg/mL
IC50 [5]: > 50 µg/mL
IC50 [6]: > 50 µg/mL
IC50 [7]: 0.047 µg/mL
IC50 [8]: > 50 µg/mL
IC50 [9]: 5.92 µg/mL
IC50 [10]: > 50 µg/mL
IC50 [11]: > 50 µg/mL
IC50 [12]: > 50 µg/mL
IC50 [13]: > 50 µg/mL
IC50 [14]: 32 µg/mL
IC50 [15]: > 50 µg/mL
IC50 [16]: > 50 µg/mL
IC50 [17]: > 50 µg/mL
IC50 [18]: > 50 µg/mL
IC50 [19]: > 50 µg/mL
IC50 [20]: > 50 µg/mL
IC50 [21]: 21.6 µg/mL
IC50 [22]: > 50 µg/mL
IC50 [23]: 1.67 µg/mL
IC50 [24]: > 50 µg/mL
IC50 [25]: 2.12 µg/mL
IC50 [26]: > 50 µg/mL
IC50 [27]: > 50 µg/mL
IC50 [28]: > 50 µg/mL
IC50 [29]: > 50 µg/mL
IC50 [30]: 0.672 µg/mL
IC50 (neutralization, TZM-bl) [31]: > 50 µg/mL
IC50 [32]: 5.63 µg/mL
IC50 [33]: 31.1 µg/mL
IC50 [34]: > 50 µg/mL
IC50 [35]: 13.6 µg/mL
IC50 (neutralization, TZM-bl) [36]: > 50 µg/mL
IC50 [37]: 17.4 µg/mL
IC50 [38]: 3.41 µg/mL
IC50 [39]: 1.1 µg/mL
IC50 [40]: > 50 µg/mL
IC50 (neutralization, TZM-bl) [41]: > 50 µg/mL
IC50 [42]: 12.6 µg/mL
IC50 [43]: > 50 µg/mL
IC50 [44]: > 50 µg/mL
IC50 [45]: > 50 µg/mL
IC50 [46]: 0.23 µg/mL
IC50 [47]: 16.5 µg/mL
IC50 [48]: > 50 µg/mL
IC50 [49]: > 50 µg/mL

CAP256-VRC26.16 (antibody)
IC50 [1]: 48.7 µg/mL
IC50 [2]: 0.004 µg/mL
IC50 [3]: > 50 µg/mL
IC50 [4]: > 50 µg/mL
IC50 [5]: 0.67 µg/mL
IC50 [6]: > 50 µg/mL
IC50 [50]: 0.82 µg/mL
IC50 [7]: 0.006 µg/mL
IC50 [8]: > 50 µg/mL
IC50 [9]: > 50 µg/mL
IC50 [10]: > 50 µg/mL
IC50 [11]: > 50 µg/mL
IC50 [12]: > 50 µg/mL
IC50 [13]: > 50 µg/mL
IC50 [14]: > 50 µg/mL
IC50 [15]: > 50 µg/mL
IC50 [16]: > 50 µg/mL
IC50 [17]: > 50 µg/mL
IC50 [18]: > 50 µg/mL
IC50 [19]: > 50 µg/mL
IC50 [20]: > 50 µg/mL
IC50 [21]: 3.9 µg/mL
IC50 [22]: > 50 µg/mL
IC50 [23]: 0.031 µg/mL
IC50 [24]: > 50 µg/mL
IC50 [25]: 0.012 µg/mL
IC50 [26]: > 50 µg/mL
IC50 [27]: > 50 µg/mL
IC50 [28]: > 50 µg/mL
IC50 [29]: > 50 µg/mL
IC50 [30]: > 50 µg/mL
IC50 [32]: 0.36 µg/mL
IC50 [33]: 5.78 µg/mL
IC50 [34]: > 50 µg/mL
IC50 [35]: 45 µg/mL
IC50 [36]: > 50 µg/mL
IC50 [37]: 5.9 µg/mL
IC50 [38]: > 50 µg/mL
IC50 [39]: 0.062 µg/mL
IC50 [40]: > 50 µg/mL
IC50 [41]: > 50 µg/mL
IC50 [42]: 2.21 µg/mL
IC50 [43]: > 50 µg/mL
IC50 [44]: > 50 µg/mL
IC50 [45]: > 50 µg/mL
IC50 [46]: 0.009 µg/mL
IC50 [47]: > 50 µg/mL
IC50 [48]: > 50 µg/mL
IC50 [49]: > 50 µg/mL
